The supplement of paper PMC10724198
± gives the standard deviation of the averaged measurements.

Tested on: Saccharomyces cerevisiae
Test: protein stability index of tFT-peptide fusion (C-terminal peptide) (PSI (0-1 scale)); higher = more stable (slower turnover)
Details: genetic background: wild type; temperature: 30 C
Experimental: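 Multiplexed protein stability (MPS) profiling in S. cerevisiae. Random 12-aa peptides (tFT-X12 library) are fused to the C-terminus of a sfGFP-mCherry tandem fluorescent timer, after mCherry and a GGGS linker. Cells are FACS-sorted into 8 mCherry/sfGFP bins and deep-sequenced. The protein stability index (PSI) is the read-weighted bin average, scaled from 0 (unstable) to 1 (stable). Only peptides with >10 reads are reported; cells were grown at 30 °C in SC-His with glucose.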
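Further: PSI is a weighted mean of sequencing reads over stability bins, variants kept only with over 10 reads, mCherry proximal and sfGFP distal, peptide attached via GGGS linker.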

Sequence	protein stability index
HNRSFLIPFFPF	0.671 ± 0.085
HPKASNSLRFSS	0.649 ± 0.0072
HPLPPTGPPSPS	0.77 ± 0.041
HPPLAPQPPPPP	0.711 ± 0.033
HPPLPRPPPPPP	0.645 ± 0.057
HPPPLGSSASNS	0.703 ± 0.039
HPPPPSPPSPLP	0.724 ± 0.036
HPPPTPPSPPPP	0.667 ± 0.088
HPPPTSQPPPGP	0.726 ± 0.05
HPPRPPLPRPRL	0.778 ± 0.19
HPPSLPSAPSLP	0.694 ± 0.029
HPPYRHHPAPLR	0.673 ± 0.058
HPQPIPVGGLSF	0.6962 ± 0.0049
HPSGLFSFVCLS	0.567 ± 0.0057
HPSREPLLLCYH	0.618 ± 0.067
HPTDVAISPRPS	0.678 ± 0.023
HPTSHRPLPAAF	0.724 ± 0.0075
HPTSNQATGRAN	0.692 ± 0.077
HREQSTILDLKE	0.715 ± 0.036
HRFFDGVRFPGH	0.692 ± 0.038
HRFPPDLYQHGP	0.645 ± 0.011
HRFPPPRPPPFS	0.729 ± 0.047
HRLTFLDTPSGH	0.781 ± 0.076
HRNAFLLPPFPL	0.695 ± 0.014
HRQERLETKTYF	0.623 ± 0.13

Sequence	protein stability index
HSFASTWYSSPG	0.685 ± 0.0076
HSGPPSPFPLNV	0.718 ± 0.034
HSHTHRHSHGTR	0.7 ± 0.083
HSPPPSLGPVPA	0.6636 ± 0.0049
HSRAPNNWHRGI	0.708 ± 0.043
HSRPRRQPPHSP	0.705 ± 0.018
HSTENGGCTREY	0.646 ± 0.039
HSTPDSAAQEPG	0.673 ± 0.065
HTLQDERNRRRD	0.696 ± 0.072
HTPTFPTSPPPP	0.68 ± 0.016
HTWAFYSETVCL	0.694 ± 0.0092
HVHSLAFPPPAT	0.695 ± 0.068
HVKVGCGNGIVR	0.644 ± 0.014
HVLRCRASLLFL	0.6305 ± 0.0031
HVPFPPTVLNSP	0.667 ± 0.088
HVTHRAVNVPLE	0.674 ± 0.029
HWCQKNKFKAIS	0.669 ± 0.033
HWSVATNMLEQH	0.74 ± 0.054
HYSLSHLRIVLD	0.645 ± 0.011
IAFLSRCWSFYL	0.49 ± 0.014
IAFSINAFCWRG	0.552 ± 0.055
IAMVTLPRLNKS	0.7179 ± 0.0071
IARKCLTGGGVS	0.696 ± 0.065
IAYGCCYKELII	0.63 ± 0.046
ICGLLFNLCKHD	0.622 ± 0.045

Sequence	protein stability index
ICITIRQTRENK	0.668 ± 0.027
ICLMRETAGRED	0.757 ± 0.2
IDCCAGDSMAGI	0.703 ± 0.072
IDKVTNTGSRKV	0.582 ± 0.05
IDSNLCFVKSYT	0.618 ± 0.064
IEGKDSQEREGR	0.706 ± 0.075
IERRCGRCMCFM	0.783 ± 0.1
IESFFLFSFSFP	0.762 ± 0.31
IFKSGLPLRVGL	0.657 ± 0.028
IFRFHRSRNSKY	0.722 ± 0.029
IFWGFSFRGGGC	0.656 ± 0.029
IGDRQIDFFKKD	0.7073 ± 0.0024
IGEAWERGQEAK	0.679 ± 0.027
IGITWDVFLGLG	0.705 ± 0.03
IGKLDYVCWRVL	0.602 ± 0.029
IGLPCSSGCCCH	0.702 ± 0.088
IGLVRPSGTQQT	0.6764 ± 0.006
IGLVVVRPKIMI	0.558 ± 0.012
IGNFTTEVDGWG	0.662 ± 0.036
IGRSPRVLSATP	0.6534 ± 0.0059
IGSFTRTTKKFK	0.723 ± 0.0073
IGSHDTRVVKMD	0.731 ± 0.059
IGSLASRSALLL	0.676 ± 0.0083
IGVAARPWAGAQ	0.706 ± 0.02
IGVNEDSAIVCM	0.562 ± 0.024

Sequence	protein stability index
IGYHGRSLGWKR	0.635 ± 0.082
IHDGKKEGKSQK	0.695 ± 0.017
IHLALYKYEVMG	0.584 ± 0.017
IHQQEVKSRICT	0.592 ± 0.031
IHSPSAYLQPSF	0.761 ± 0.029
IICDIFYCSTVS	0.644 ± 0.01
IIDCQVSFSFLI	0.588 ± 0.063
IIIEYNINRKKI	0.611 ± 0.05
IIKMNERTLTKI	0.692 ± 0.099
IKGSLILRGRGE	0.657 ± 0.025
IKKEKKQKKKKG	0.665 ± 0.098
IKKKKKEKGDST	0.713 ± 0.082
IKKKKKKGIILD	0.71 ± 0.05
IKKKKKKKKKRD	0.652 ± 0.016
IKKKKKKTPKNM	0.714 ± 0.062
IKKKQKIPKNAK	0.678 ± 0.013
IKKNHKENKRKE	0.666 ± 0.016
IKLVVLGPLVWF	0.625 ± 0.018
IKNMWLACFGLY	0.667 ± 0.027
IKNQNKKKKNKK	0.689 ± 0.05
IKPVETEKRECK	0.668 ± 0.094
IKSDCKDRRKRR	0.7233 ± 0.0072
IKTKREKNGVSS	0.722 ± 0.016
IKVIACSEPIPG	0.592 ± 0.021
ILCLAPLSCYPV	0.832 ± 0.055

Sequence	protein stability index
ILCPGLYQFLVF	0.529 ± 0.038
ILDSPMWQPVSM	0.727 ± 0.056
ILFSSDLNSFSW	0.744 ± 0.03
ILQWEESRKGGI	0.715 ± 0.054
ILRGRDLPHGLG	0.688 ± 0.03
ILRLSLPYEGYI	0.645 ± 0.032
IMGIIKFKSYRI	0.703 ± 0.12
IMKQHNYIGFVF	0.608 ± 0.062
IMNNSKIYRSVG	0.6593 ± 0.0021
IMVLKAAVSKQE	0.69 ± 0.09
INGICDPQANSR	0.71 ± 0.027
INKATYTQIYKN	0.667 ± 0.021
INQEKKLKNNKK	0.70627 ± 0.0004
INWIHERNDKSI	0.734 ± 0.027
IPCKVCQSLIPP	0.611 ± 0.12
IPGSPIATARPG	0.665 ± 0.025
IPPFLVSLPFLP	0.702 ± 0.018
IPSCAGLPLSLS	0.7134 ± 0.0019
IPSCSTPAPHLP	0.677 ± 0.022
IQAVSRDYVELR	0.652 ± 0.031
IQKNKQEVKTNI	0.685 ± 0.1
IRDKTSIRKLEK	0.677 ± 0.058
IRFCILRRLGRH	0.588 ± 0.028
IRKGKKIRKKEN	0.641 ± 0.037
IRLPHPPLPPSP	0.6673 ± 0.0025

Sequence	protein stability index
IRPRRFSPGSTR	0.7 ± 0.043
IRPWPLDPPPGR	0.78 ± 0.08
IRRAGPMVAKGK	0.649 ± 0.086
ISAPLPTLLSVL	0.559 ± 0.041
ISCVSFCCLFDL	0.601 ± 0.0022
ISFGSKLPHHLP	0.657 ± 0.11
ISGDGWNFVGIV	0.715 ± 0.097
ISGRRPWGFGGE	0.642 ± 0.041
ISPQEPLVNTTN	0.665 ± 0.018
ISPSASTSRPFQ	0.697 ± 0.11
ISRLLMAMESRN	0.653 ± 0.024
ISSNMIVMAICG	0.6 ± 0.03
ISSTGYQARHRG	0.688 ± 0.03
ISVDNTKFLFRS	0.687 ± 0.023
ISYIGCCKIVLT	0.553 ± 0.0086
ITRLSPPSSVRL	0.7 ± 0.039
ITTLGSVSRDSR	0.722 ± 0.062
IVGAGVFEERWG	0.77 ± 0.023
IVGLGLENGKEI	0.704 ± 0.042
IVLAGVCGGVVG	0.733 ± 0.29
IVLLSLSCRSPG	0.594 ± 0.014
